Measurements published in patent publication US10961298 (GOVERNMENT OF THE UNITED STATES AS REPRESENTED BY THE …, dated 2021).

How the values were obtained:
[1] = target: T1, Hcp (hemolysin co-regulated protein, T6SS needle protein) of Acinetobacter baumannii AB5075, recombinant, … (Acinetobacter baumannii (strain AB5075)); experiment: screening of hybridoma clones for binding to Hcp antigen
T1 construct: Cloned NcoI/XhoI into pET22b, overexpressed in E. coli and purified on a nickel column; also called full-length Hcp protein; purified Hcp protein
T1 chain: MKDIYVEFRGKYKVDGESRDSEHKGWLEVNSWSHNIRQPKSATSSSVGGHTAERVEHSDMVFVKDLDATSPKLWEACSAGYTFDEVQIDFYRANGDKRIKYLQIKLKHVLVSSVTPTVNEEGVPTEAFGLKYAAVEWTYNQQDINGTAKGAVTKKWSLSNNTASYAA

[2] = target: T2, Hcp peptide EEGVPTEAFGLKYAA (Acinetobacter baumannii); experiment: peptide ELISA, peptide on plate, anti-mouse HRP, OD450
T2 peptide: EEGVPTEAFGLKYAA

[3] = target: T3, Hcp peptide SVTPTVNEEGVPTEA (Acinetobacter baumannii); experiment: as above
T3 peptide: SVTPTVNEEGVPTEA

[4] = target: T4, Hcp peptide VNSWSHNIRQPKSAT (Acinetobacter baumannii); experiment: as above
T4 peptide: VNSWSHNIRQPKSAT

[5] = target: T5, Hcp peptide AVEWTYNQQDINGTA (Acinetobacter baumannii); experiment: as above
T5 peptide: AVEWTYNQQDINGTA

[6] = target: T6, Hcp peptide AKGAVTKKWSLSNNT (Acinetobacter baumannii); experiment: as above
T6 peptide: AKGAVTKKWSLSNNT

[7] = target: T7, Hcp peptide LKHVLVSSVTPTVNE (Acinetobacter baumannii); experiment: as above
T7 peptide: LKHVLVSSVTPTVNE

[8] = target: T8, Hcp peptide KDLDATSPKLWEACS (Acinetobacter baumannii); experiment: as above
T8 peptide: KDLDATSPKLWEACS

[9] = target: T9, Hcp peptide HTAERVEHSDMVFVK (Acinetobacter baumannii); experiment: as above
T9 peptide: HTAERVEHSDMVFVK

[10] = target: T10, Hcp peptide EVQIDFYRANGDKRI (Acinetobacter baumannii); experiment: as above
T10 peptide: EVQIDFYRANGDKRI

[11] = target: T11, Hcp peptide SAGYTFDEVQIDFYR (Acinetobacter baumannii); experiment: as above
T11 peptide: SAGYTFDEVQIDFYR

[12] = target: T12, Hcp peptide PKLWEACSAGYTFDE (Acinetobacter baumannii); experiment: as above
T12 peptide: PKLWEACSAGYTFDE

[13] = target: T13, Hcp peptide DGESRDSEHKGWLEV (Acinetobacter baumannii); experiment: as above
T13 peptide: DGESRDSEHKGWLEV

[14] = target: T14, Hcp peptide IKYLQIKLKHVLVSS (Acinetobacter baumannii); experiment: as above
T14 peptide: IKYLQIKLKHVLVSS

[15] = target: T15, Hcp peptide RANGDKRIKYLQIKL (Acinetobacter baumannii); experiment: as above
T15 peptide: RANGDKRIKYLQIKL

[16] = target: T16, Hcp peptide QQDINGTAKGAVTKK (Acinetobacter baumannii); experiment: as above
T16 peptide: QQDINGTAKGAVTKK

[17] = target: T17, Hcp peptide FRGKYKVDGESRDSE (Acinetobacter baumannii); experiment: as above
T17 peptide: FRGKYKVDGESRDSE

[18] = target: T18, Hcp peptide IRQPKSATSSSVGGH (Acinetobacter baumannii); experiment: as above
T18 peptide: IRQPKSATSSSVGGH

[19] = target: T19, Hcp peptide HSDMVFVKDLDATSP (Acinetobacter baumannii); experiment: as above
T19 peptide: HSDMVFVKDLDATSP

[20] = target: T20, Hcp peptide TSSSVGGHTAERVEH (Acinetobacter baumannii); experiment: as above
T20 peptide: TSSSVGGHTAERVEH

[21] = target: T21, Hcp peptide EHKGWLEVNSWSHN (Acinetobacter baumannii); experiment: as above
T21 peptide: EHKGWLEVNSWSHN

[22] = target: T22, Hcp peptide KWSLSNNTASYAA (Acinetobacter baumannii); experiment: as above
T22 peptide: KWSLSNNTASYAA

[23] = target: T23, Hcp peptide AFGLKYAAVEWTYNQ (Acinetobacter baumannii); experiment: as above
T23 peptide: AFGLKYAAVEWTYNQ

[24] = target: T24, Hcp peptide #1 MKDIYVEFRGKYKVD (Acinetobacter baumannii); experiment: as above
T24 construct: also called amino terminus peptide; N-terminus peptide
T24 peptide: MKDIYVEFRGKYKVD

B1: 13F7 anti-Hcp monoclonal antibody (antibody, V domains shown)
VH: EVQLQESGGGLVQPGGSMKLSCVVSGFIFSSYWMSWVRQSPEKGLEWLAEIRLKSDNYVTLYAESVKGKFTISRDDSKSRLFLQMNTLRAEDTGIYYCTRSYHALDYWGQGTSVTVSS
VL: DIVMAQSPSSLNVSAGDKVTMSCKSSQSLLNSGNQRNYLAWYQQKPGQPPKLLIYGASTRESGVPDRFTGSGSGTDFTLTISSVQAEDLAVYYCQNDHIYPFTFGSGTKLEIK
notes: Mouse monoclonal antibody from a hybridoma; also called αHcp; 13F7 αHcp antibody
binding result [1]: binds
binding result [2]: no binding
binding result [3]: no binding
binding result [4]: no binding
binding result [5]: no binding
binding result [6]: no binding
binding result [7]: no binding
binding result [8]: no binding
binding result [9]: no binding
binding result [10]: no binding
binding result [11]: no binding
binding result [12]: no binding
binding result [13]: no binding
binding result [14]: no binding
binding result [15]: no binding
binding result [16]: no binding
binding result [17]: no binding
binding result [18]: no binding
binding result [19]: no binding
binding result [20]: no binding
binding result [21]: no binding
binding result [22]: no binding
binding result [23]: no binding
binding result [24]: binds
